Assay [1] concerns the target human C-MET on stably transfected CHO-K1 cells (human) (UniProt P08581). Briefly: flow cytometry, C-MET CHO-K1 cells. On the technique in general: In flow cytometry, cells or beads pass a laser one at a time.
Assay [2] addresses cynomolgus monkey C-MET on stably transfected CHO-K1 cells (cynomolgus monkey). As to the kind of experiment: flow cytometry, C-MET CHO-K1 cells.
Assay [3] concerns the target cynomolgus monkey C-MET His tag, monomeric (cynomolgus monkey). As to the kind of experiment: SPR Biacore, IgG captured, monomeric C-MET-His analyte.
Assay [4] has as its target human C-MET His tagged, monomeric (human) (UniProt P08581). The description is as above.
Assay [5] deals with cynomolgus monkey C-MET His tag, monomeric (cynomolgus monkey). Briefly: SPR Biacore, monomeric cyno against monomeric human C-MET. (Surface plasmon resonance follows binding to a sensor surface in real time, without labels.)
Sequence of cynomolgus monkey C-MET His tag, monomeric (cynomolgus monkey) (A0M8R7 25-932 S170N/I621T): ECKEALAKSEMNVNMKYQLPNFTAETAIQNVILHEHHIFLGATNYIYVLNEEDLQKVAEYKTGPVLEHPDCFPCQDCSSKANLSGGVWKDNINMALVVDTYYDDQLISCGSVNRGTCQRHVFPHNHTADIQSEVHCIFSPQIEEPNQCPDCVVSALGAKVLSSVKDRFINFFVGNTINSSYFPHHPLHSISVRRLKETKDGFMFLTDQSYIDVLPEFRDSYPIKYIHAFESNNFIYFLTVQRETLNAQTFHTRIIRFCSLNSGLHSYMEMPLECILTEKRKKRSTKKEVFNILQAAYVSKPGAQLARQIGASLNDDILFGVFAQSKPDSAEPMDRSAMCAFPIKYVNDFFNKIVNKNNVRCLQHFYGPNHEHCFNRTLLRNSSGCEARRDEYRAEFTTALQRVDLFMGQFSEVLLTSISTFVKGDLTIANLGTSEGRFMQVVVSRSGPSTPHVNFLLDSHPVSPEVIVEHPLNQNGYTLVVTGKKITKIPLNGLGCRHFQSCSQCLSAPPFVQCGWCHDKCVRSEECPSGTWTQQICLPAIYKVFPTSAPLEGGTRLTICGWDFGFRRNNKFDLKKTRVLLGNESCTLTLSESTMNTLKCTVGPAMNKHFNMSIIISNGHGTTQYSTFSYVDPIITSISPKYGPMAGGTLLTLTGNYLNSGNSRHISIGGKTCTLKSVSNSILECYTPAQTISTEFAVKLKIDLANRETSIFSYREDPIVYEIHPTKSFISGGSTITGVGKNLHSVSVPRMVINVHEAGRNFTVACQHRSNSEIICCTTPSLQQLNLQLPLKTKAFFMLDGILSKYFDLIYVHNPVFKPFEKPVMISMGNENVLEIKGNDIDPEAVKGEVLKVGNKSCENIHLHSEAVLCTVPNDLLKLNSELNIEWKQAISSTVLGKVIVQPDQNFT

From patent US20260042850A1 come the findings set out here.

Numbering of substitutions follows the chain as printed. Where only a bound is given, the exact number is not on record here.

Sequence of human C-MET on stably transfected CHO-K1 cells (human) (P08581 25-1390 limits assumed): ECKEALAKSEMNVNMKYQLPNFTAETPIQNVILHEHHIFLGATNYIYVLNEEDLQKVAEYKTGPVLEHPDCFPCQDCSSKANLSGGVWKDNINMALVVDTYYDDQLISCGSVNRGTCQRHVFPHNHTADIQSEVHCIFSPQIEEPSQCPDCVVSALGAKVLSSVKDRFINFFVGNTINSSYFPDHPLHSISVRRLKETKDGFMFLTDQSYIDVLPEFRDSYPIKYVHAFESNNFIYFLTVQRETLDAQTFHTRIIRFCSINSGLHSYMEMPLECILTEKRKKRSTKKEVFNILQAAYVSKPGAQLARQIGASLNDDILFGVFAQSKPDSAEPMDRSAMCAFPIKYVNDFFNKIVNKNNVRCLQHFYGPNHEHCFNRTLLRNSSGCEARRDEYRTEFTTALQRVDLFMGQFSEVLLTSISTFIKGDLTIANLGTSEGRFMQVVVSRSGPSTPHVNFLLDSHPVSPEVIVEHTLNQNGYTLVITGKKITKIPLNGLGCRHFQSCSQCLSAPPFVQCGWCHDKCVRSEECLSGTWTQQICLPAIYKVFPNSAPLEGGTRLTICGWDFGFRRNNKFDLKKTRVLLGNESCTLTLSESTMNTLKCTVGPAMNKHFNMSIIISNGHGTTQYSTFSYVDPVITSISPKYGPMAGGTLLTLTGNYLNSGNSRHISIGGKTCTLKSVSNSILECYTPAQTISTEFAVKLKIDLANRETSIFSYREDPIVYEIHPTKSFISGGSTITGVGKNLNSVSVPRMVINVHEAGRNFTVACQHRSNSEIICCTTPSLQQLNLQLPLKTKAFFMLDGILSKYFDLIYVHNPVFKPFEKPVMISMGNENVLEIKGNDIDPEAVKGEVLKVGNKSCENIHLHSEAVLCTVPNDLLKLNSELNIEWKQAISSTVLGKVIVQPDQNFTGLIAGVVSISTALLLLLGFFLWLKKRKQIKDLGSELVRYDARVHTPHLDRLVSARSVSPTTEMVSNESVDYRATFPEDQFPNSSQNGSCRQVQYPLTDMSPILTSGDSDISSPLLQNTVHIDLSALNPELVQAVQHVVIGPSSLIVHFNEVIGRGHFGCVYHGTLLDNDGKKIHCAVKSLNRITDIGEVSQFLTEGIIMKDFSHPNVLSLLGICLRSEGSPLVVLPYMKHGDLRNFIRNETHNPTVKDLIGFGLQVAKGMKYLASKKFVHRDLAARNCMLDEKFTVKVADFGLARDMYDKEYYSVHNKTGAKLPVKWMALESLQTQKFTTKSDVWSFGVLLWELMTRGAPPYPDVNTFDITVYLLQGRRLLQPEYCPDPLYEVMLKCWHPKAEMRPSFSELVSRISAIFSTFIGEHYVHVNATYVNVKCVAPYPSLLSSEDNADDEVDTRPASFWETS
Sequence of cynomolgus monkey C-MET on stably transfected CHO-K1 cells (cynomolgus monkey) (A0M8R7 25-1381 S170N/I621T limits assumed): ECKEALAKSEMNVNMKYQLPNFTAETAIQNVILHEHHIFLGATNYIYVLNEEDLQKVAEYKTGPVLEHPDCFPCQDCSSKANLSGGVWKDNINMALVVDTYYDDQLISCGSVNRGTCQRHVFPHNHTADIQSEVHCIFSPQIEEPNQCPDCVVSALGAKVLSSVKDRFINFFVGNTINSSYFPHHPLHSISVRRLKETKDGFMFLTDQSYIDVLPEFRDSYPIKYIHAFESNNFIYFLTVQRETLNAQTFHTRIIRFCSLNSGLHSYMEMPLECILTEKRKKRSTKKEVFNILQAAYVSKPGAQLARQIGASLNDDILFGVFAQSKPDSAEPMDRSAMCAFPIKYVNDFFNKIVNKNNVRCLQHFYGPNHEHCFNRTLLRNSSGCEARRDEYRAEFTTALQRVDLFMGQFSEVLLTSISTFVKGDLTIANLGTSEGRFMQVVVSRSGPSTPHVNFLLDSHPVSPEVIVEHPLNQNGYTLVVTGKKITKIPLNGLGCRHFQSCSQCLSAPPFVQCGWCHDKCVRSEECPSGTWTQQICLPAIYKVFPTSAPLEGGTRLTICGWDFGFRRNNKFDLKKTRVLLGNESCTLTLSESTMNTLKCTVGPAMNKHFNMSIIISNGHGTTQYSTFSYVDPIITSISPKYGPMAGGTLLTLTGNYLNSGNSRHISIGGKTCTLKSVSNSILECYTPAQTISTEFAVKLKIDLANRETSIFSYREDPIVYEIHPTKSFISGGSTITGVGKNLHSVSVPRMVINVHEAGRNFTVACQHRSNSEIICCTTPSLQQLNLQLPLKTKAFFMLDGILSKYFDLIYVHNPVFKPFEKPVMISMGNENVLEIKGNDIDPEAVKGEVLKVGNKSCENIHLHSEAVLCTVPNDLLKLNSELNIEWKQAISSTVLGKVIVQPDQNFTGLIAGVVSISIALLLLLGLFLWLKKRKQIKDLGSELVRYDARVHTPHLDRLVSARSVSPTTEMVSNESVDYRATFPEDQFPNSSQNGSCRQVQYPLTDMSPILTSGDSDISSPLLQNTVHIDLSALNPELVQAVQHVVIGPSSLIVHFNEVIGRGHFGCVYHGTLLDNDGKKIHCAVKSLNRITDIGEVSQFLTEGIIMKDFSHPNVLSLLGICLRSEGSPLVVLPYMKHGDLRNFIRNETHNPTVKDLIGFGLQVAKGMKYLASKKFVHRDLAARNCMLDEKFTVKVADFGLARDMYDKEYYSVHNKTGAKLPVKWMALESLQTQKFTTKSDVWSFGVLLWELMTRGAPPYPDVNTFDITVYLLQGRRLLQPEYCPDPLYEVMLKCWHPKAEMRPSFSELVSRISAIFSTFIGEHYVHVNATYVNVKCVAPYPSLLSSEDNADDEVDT
Sequence of human C-MET His tagged, monomeric (human) (P08581 25-932): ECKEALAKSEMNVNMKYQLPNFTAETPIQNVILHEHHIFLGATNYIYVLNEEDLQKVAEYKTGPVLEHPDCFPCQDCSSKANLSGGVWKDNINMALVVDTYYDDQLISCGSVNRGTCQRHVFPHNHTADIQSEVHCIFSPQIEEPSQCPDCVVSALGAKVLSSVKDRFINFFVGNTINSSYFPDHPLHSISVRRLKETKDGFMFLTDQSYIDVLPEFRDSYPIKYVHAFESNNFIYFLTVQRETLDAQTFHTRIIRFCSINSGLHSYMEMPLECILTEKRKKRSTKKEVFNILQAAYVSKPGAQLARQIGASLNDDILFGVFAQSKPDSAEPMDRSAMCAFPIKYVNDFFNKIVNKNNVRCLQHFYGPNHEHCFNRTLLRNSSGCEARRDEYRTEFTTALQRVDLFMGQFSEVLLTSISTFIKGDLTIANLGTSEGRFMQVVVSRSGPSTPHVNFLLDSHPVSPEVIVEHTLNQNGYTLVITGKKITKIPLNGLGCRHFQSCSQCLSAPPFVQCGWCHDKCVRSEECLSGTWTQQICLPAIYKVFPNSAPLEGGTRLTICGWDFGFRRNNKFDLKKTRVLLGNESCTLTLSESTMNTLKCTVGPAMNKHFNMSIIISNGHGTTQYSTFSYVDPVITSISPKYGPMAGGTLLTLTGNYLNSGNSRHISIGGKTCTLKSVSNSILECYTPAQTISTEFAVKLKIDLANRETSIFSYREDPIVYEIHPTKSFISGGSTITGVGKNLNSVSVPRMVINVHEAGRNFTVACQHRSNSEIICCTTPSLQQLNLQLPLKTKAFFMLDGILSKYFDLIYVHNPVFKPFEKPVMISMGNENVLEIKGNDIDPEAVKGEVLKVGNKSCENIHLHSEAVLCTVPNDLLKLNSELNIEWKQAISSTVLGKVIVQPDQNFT

B1: 09A12 (antibody, IgG4, V domains shown)
VH: QVQLVQSGAEVKKPGASVKVSCKASGYTFTSYSMHWVRQAPGQGLEWMGWINPNGGLTNYAQKFRGRVTMTRDTSTSTVYMELSSLRSEDTAVYYCAREEITTEFDYWGQGTLVTVSS
VL: EIVLTQSPGTLSLSPGERATLSCRASQSVSSYAQSYLHWYQQKPGQAPRLLIYRASTRETGIPDRFSGSGSGTDFTLTISRLEPEDFAVYYCQQSKESPLTFGGGTKVEIK
As usually defined, the EC50 is the concentration at which the effect is half-maximal. Broadly, the Kd is the constant that tells how readily two partners part at equilibrium. What is called koff is the rate constant with which the complex falls apart. The kon is the second-order rate constant of association. For the molecule B1, in assay [1], the EC50 is 2.33 nM and the maximum MFI, fold over Isotype IgG4 background is more than 10 fold. In assay [2], the EC50 is 0.28 nM and the maximum MFI, fold over Isotype IgG4 background was more than 10 fold. In assay [3], this molecule registered a Kd of 1.5 nM, an off-rate constant (koff) of 0.00023 s⁻¹ and a kon of 160000 M⁻¹ s⁻¹. In assay [4], this molecule registered a Kd of 2 nM, a koff of 0.00015 s⁻¹ and a kon of 74000 M⁻¹ s⁻¹.

B2: 07A01 (antibody, IgG4, V domains shown)
VH: B1 VH with T28I, S33T, T58A, N59S, R65Q, E99S, F105Q
VL: B1 VL with S30D, Q34N, A55G, T60S
In assay [1], B2 registered an EC50 of 7.44 nM and a maximum MFI, fold over Isotype IgG4 background of more than 10 fold. In assay [2], this molecule had an EC50 of 1.74 nM and a maximum MFI, fold over Isotype IgG4 background of more than 10 fold. In assay [5], this molecule registered a cyno C-MET affinity, fold of the human C-MET affinity of less than 2 fold. In assay [3], this molecule displayed a Kd of 0.17 nM, a koff of 1.6e-05 s⁻¹ and a kon of 94000 M⁻¹ s⁻¹. In addition, in assay [4], the Kd is 0.24 nM, the koff is 1.3e-05 s⁻¹ and the kon stood at 56000 M⁻¹ s⁻¹.
